The results in this text go back to patent US20120058906A1 (published 2012).

The target of assay [1] is T1, rHuman Erythropoietin R/Fc Chimera, CF (R&D Systems Cat#963-ER) (human, UniProt P19235 25-250).
T1 construct: Bought Fc chimera; also called EPO R/Fc; Epo R; not shown: Fc of the bought chimera
T1 sequence: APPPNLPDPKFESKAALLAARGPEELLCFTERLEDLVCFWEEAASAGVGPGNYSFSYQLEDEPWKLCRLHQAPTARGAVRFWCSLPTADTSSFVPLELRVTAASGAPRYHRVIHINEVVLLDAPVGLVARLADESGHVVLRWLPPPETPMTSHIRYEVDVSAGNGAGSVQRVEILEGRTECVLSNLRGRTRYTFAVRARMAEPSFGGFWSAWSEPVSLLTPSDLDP
Put plainly: ECL (MSD multi-spot), antigen on plate, Fab 5 nM.

For assay [2], the target named is T2, Recombinant Human DLL4 (R&D Systems Cat#1506-D4/CF) (human, UniProt Q9NR61 27-524).
T2 construct: Bought recombinant protein; also called delta-like protein 4
Put plainly: ECL (MSD multi-spot), antigen on plate, Fab 5 nM.

In assay [3] the target is T3, rHuman HGF R/c-MET/Fc Chimera, CF (R&D Systems Cat#358-MT/CF) (human, UniProt P08581 25-932).
T3 construct: Bought Fc chimera; also called HGF R/Fc; not shown: Fc of the bought chimera
Briefly: ECL (MSD multi-spot), antigen on plate, Fab 5 nM.

Assay [4] has as its target T4, rHuman IGF-1 sR (insulin-like growth factor-1 soluble receptor), CF (R&D Systems Cat#391-GR) (human, UniProt P08069 31-932).
T4 construct: Bought soluble receptor; also called IGF-R1
Briefly: ECL (MSD multi-spot), antigen on plate, Fab 5 nM.

Assay [5] has as its target T5, rHuman P-Cadherin/Fc Chimera, CF (R&D Systems Cat#861-PC) (human, UniProt P22223 108-654).
T5 construct: Bought Fc chimera; also called CDH3; not shown: Fc of the bought chimera
Put plainly: ECL (MSD multi-spot), antigen on plate, Fab 5 nM.

Assay [6] has as its target T6, rHuman Notch-1/Fc Chimera, CF (R&D Systems Cat#3647-TK) (human, UniProt P46531 19-526).
T6 construct: Bought Fc chimera; not shown: Fc of the bought chimera
Put plainly: ECL (MSD multi-spot), antigen on plate, Fab 5 nM.

Assay [7] concerns the target T7, rHuman EGF R/Fc Chimera, CF (R&D Systems Cat#344-ER) (human, UniProt P00533 25-645).
T7 construct: Bought Fc chimera; also called ErbB-1; not shown: Fc of the bought chimera
Put plainly: ECL (MSD multi-spot), antigen on plate, Fab 5 nM.

In assay [8] the target is T8, rHuman CD44/Fc Chimera, CF (R&D Systems Cat#3660-CD) (human, UniProt P16070 21-220).
T8 construct: Bought Fc chimera; not shown: Fc of the bought chimera
Briefly: ECL (MSD multi-spot), antigen on plate, Fab 5 nM.

Assay [9] deals with T1, rHuman Erythropoietin R/Fc Chimera, CF …. Briefly: ECL (MSD multi-spot), antigen on plate, Fab 0.4 nM.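 Further: blank spot per well as comparator with Hit at signal to blank ratio of 4 or more.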
Assay [10] addresses T2, Recombinant Human DLL4 (R&D Systems …). Briefly: ECL (MSD multi-spot), antigen on plate, Fab 0.4 nM.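 Further: blank spot per well as comparator with Hit at signal to blank ratio of 4 or more.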
Assay [11] deals with T3, rHuman HGF R/c-MET/Fc Chimera, CF (R&D …). Put plainly: ECL (MSD multi-spot), antigen on plate, Fab 0.4 nM.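 Further: blank spot per well as comparator with Hit at signal to blank ratio of 4 or more.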
In assay [12] the target is T4, rHuman IGF-1 sR (insulin-like growth …). Briefly: ECL (MSD multi-spot), antigen on plate, Fab 0.4 nM.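 Further: blank spot per well as comparator with Hit at signal to blank ratio of 4 or more.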
The target in assay [13] is T5, rHuman P-Cadherin/Fc Chimera, CF (R&D …). Put plainly: ECL (MSD multi-spot), antigen on plate, Fab 0.4 nM.
Assay [14] concerns the target T6, rHuman Notch-1/Fc Chimera, CF (R&D …). Put plainly: ECL (MSD multi-spot), antigen on plate, Fab 0.4 nM.
Assay [15] concerns the target T7, rHuman EGF R/Fc Chimera, CF (R&D …). Briefly: ECL (MSD multi-spot), antigen on plate, Fab 0.4 nM.
The target of assay [16] is T8, rHuman CD44/Fc Chimera, CF (R&D Systems …). Put plainly: ECL (MSD multi-spot), antigen on plate, Fab 0.4 nM.
The target in assay [17] is T9, rHuman ErbB2/Fc Chimera, CF (R&D Systems Cat#1129-ER) (human, UniProt P04626 23-652).
T9 construct: Bought Fc chimera; also called HER2/neu; not shown: Fc of the bought chimera
Put plainly: ECL (MSD multi-spot), antigen on plate, Fab 0.4 nM.

In assay [18] the target is T10, Recombinant Human DLL4 (R&D Systems Cat#1506-D4/CF) (human, UniProt Q9NR61 27-524).
T10 construct: Bought recombinant protein; also called delta-like protein 4; rHuman DLL4
Put plainly: ECL (MSD Multi-Spot) binding assay, antigen spotted on plate; Fab 15 nM; blank spot 261.

Assay [19] addresses T11, rHuman CD44/Fc Chimera, CF (R&D Systems Cat#3660-CD) (human, UniProt P16070 21-220).
T11 construct: Bought Fc chimera; Fc part of the bought chimera not given
Described as above.

Assay [20] deals with T12, rHuman P-Cadherin/Fc Chimera, CF (R&D Systems Cat#861-PC) (human, UniProt P22223 108-654).
T12 construct: Bought Fc chimera; also called CDH3; Fc part of the bought chimera not given
The description is as above.

Residue numbers refer to the chain shown, from its start.

B1: Fab VH1-46_IGHD6-6*01_IGHJ1*01_S102A_S103P_S104Y_H111Y & L6_IGKJ1*01 (Fab, V domains shown)
VH: QVQLVQSGAEVKKPGASVKVSCKASGYTFTSYYMHWVRQAPGQGLEWMGIINPSGGSTSYAQKFQGRVTMTRDTSTSTVYMELSSLRSEDTAVYYCAREEYAPYSAEYFQYWGQGTLVTVSS
VL: not shown
notes: Fab made in E. coli; The heavy chain also carries CH1 with Flag and His tags from Plasmid A, and the light chain carries kappa CL from Plasmid C
As to B1, the ECL signal turned out to be 3580 ECL signal in [1]; 73400 ECL signal in assay [2]; 3100 ECL signal in assay [3]; 3030 ECL signal in assay [4]; 4160 ECL signal in assay [5]; 3230 ECL signal in assay [6]. For the same molecule, the ECL signal amounted to 2980 ECL signal in [7] and 2760 ECL signal in assay [8].

B2: Fab VH1-46_IGHD6-6*01_IGHJ1*01_S102A_S103P_S104F & L6_IGKJ1*01_S31K (Fab, V domains shown)
VH: B1 VH with Y104F, Y111H
VL: EIVLTQSPATLSLSPGERATLSCRASQSVSKYLAWYQQKPGQAPRLLIYDASNRATGIPARFSGSGSGTDFTLTISSLEPEDFAVYYCQQRSNWPPWTFGQGTKVEIKR
notes: Fab
In the case of B2, the ECL signal is 217 ECL signal in assay [9]; 1260 ECL signal in assay [10]; 119 ECL signal in assay [11]; 65 ECL signal in assay [12]; 151 ECL signal in [13]; 197 ECL signal in assay [14]. Also, the ECL signal in assay [15] is 175 ECL signal; in [16] it was 190 ECL signal; in assay [17] it was 159 ECL signal.

B3: Fab VH6-1_IGHD3-3*01_IGHJ4*01 & V4-3_IGLJ4*01 (Fab, V domains shown)
VH: QVQLQQSGPGLVKPSQTLSLTCAISGDSVSSNSAAWNWIRQSPSRGLEWLGRTYYRSKWYNDYAVSVKSRITINPDTSKNQFSLQLNSVTPEDTAVYYCAREYYDFWSGYYTDYFDYWGQGTLVTVSS
VL: QPVLTQPTSLSASPGASARLTCTLRSGINLGSYRIFWYQQKPESPPRYLLSYYSDSSKHQGSGVPSRFSGSKDASSNAGILVISGLQSEDEADYYCMIWHSSASFVFGGGTQLIIL
notes: Tested as a Fab made in E. coli; also called IGHV6-1*01
Turning to B3, the ECL signal in [18] was 690; in assay [19], 454; in assay [20], 351.
